B1: Peroxisomal bifunctional enzyme (Homo sapiens), Q08426 (parent)
chain: MAEYTRLHNALALIRLRNPPVNAISTTLLRDIKEGLQKAVIDHTIKAIVICGAEGKFSAGADIRGFSAPRTFGLTLGHVVDEIQRNEKPVVAAIQGMAFGGGLELALGCHYRIAHAEAQVGLPEVTLGLLPGARGTQLLPRLTGVPAALDLITSGRRILADEALKLGILDKVVNSDPVEEAIRFAQRVSDQPLESRRLCNKPIQSLPNMDSIFSEALLKMRRQHPGCLAQEACVRAVQAAVQYPYEVGIKKEEELFLYLLQSGQARALQYAFFAERKANKWSTPSGASWKTASARPVSSVGVVGLGTMGRGIVISFARARIPVIAVDSDKNQLATANKMITSVLEKEASKMQQSGHPWSGPKPRLTSSVKELGGVDLVIEAVFEEMSLKKQVFAELSAVCKPEAFLCTNTSALDVDEIASSTDRPHLVIGTHFFSPAHVMKLLEVIPSQYSSPTTIATVMNLSKKIKKIGVVVGNCFGFVGNRMLNPYYNQAYFLLEEGSKPEEVDQVLEEFGFKMGPFRVSDLAGLDVGWKSRKGQGLTGPTLLPGTPARKRGNRRYCPIPDVLCELGRFGQKTGKGWYQYDKPLGRIHKPDPWLSKFLSRYRKTHHIEPRTISQDEILERCLYSLINEAFRILGEGIAASPEHIDVVYLHGYGWPRHKGGPMFYASTVGLPTVLEKLQKYYRQNPDIPQLEPSDYLKKLASQGNPPLKEWQSLAGSPSSKL
partner: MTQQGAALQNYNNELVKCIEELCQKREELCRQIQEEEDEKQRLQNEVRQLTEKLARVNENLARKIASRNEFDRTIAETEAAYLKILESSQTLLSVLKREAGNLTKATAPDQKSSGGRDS
B2: Eukaryotic translation initiation factor 4E-binding protein 2 (Homo sapiens), Q13542 (parent)
chain: MSSSAGSGHQPSQSRAIPTRTVAISDAAQLPHDYCTTPGGTLFSTTPGGTRIIYDRKFLLDRRNSPMAQTPPCHLPNIPGVTSPGTLIEDSKVEVNNLNNLNNHDRKHAVGDDAQFEMDI
B3: Ropporin-1A (Homo sapiens), Q9HAT0 (parent)
chain: MAQTDKPTCIPPELPKMLKEFAKAAIRVQPQDLIQWAADYFEALSRGETPPVRERSERVALCNRAELTPELLKILHSQVAGRLIIRAEELAQMWKVVNLPTDLFNSVMNVGRFTEEIEWLKFLALACSALGVTITKTLKIVCEVLSCDHNGGSPRIPFSTFQFLYTYIAKVDGEISASHVSRMLNYMEQEVIGPDGIITVNDFTQNPRVQLE
B4: Serine/threonine-protein kinase PAK 5 (Homo sapiens), Q9P286 (parent)
chain: MFGKKKKKIEISGPSNFEHRVHTGFDPQEQKFTGLPQQWHSLLADTANRPKPMVDPSCITPIQLAPMKTIVRGNKPCKETSINGLLEDFDNISVTRSNSLRKESPPTPDQGASSHGPGHAEENGFITFSQYSSESDTTADYTTEKYREKSLYGDDLDPYYRGSHAAKQNGHVMKMKHGEAYYSEVKPLKSDFARFSADYHSHLDSLSKPSEYSDLKWEYQRASSSSPLDYSFQFTPSRTAGTSGCSKESLAYSESEWGPSLDDYDRRPKSSYLNQTSPQPTMRQRSRSGSGLQEPMMPFGASAFKTHPQGHSYNSYTYPRLSEPTMCIPKVDYDRAQMVLSPPLSGSDTYPRGPAKLPQSQSKSGYSSSSHQYPSGYHKATLYHHPSLQSSSQYISTASYLSSLSLSSSTYPPPSWGSSSDQQPSRVSHEQFRAALQLVVSPGDPREYLANFIKIGEGSTGIVCIATEKHTGKQVAVKKMDLRKQQRRELLFNEVVIMRDYHHDNVVDMYSSYLVGDELWVVMEFLEGGALTDIVTHTRMNEEQIATVCLSVLRALSYLHNQGVIHRDIKSDSILLTSDGRIKLSDFGFCAQVSKEVPKRKSLVGTPYWMAPEVISRLPYGTEVDIWSLGIMVIEMIDGEPPYFNEPPLQAMRRIRDSLPPRVKDLHKVSSVLRGFLDLMLVREPSQRATAQELLGHPFLKLAGPPSCIVPLMRQYRHH
partner: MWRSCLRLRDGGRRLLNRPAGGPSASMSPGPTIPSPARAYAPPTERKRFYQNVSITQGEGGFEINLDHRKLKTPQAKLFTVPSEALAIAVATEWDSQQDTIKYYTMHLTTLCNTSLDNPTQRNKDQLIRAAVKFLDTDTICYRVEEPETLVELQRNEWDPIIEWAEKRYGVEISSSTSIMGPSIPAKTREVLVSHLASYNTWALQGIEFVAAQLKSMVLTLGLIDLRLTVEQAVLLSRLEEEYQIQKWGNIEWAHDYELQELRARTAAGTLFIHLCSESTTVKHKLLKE
B5: Keratin, type II cytoskeletal 79 (Homo sapiens), Q5XKE5 (parent)
chain: MRSSVSRQTYSTKGGFSSNSASGGSGSQARTSFSSVTVSRSSGSGGGAHCGPGTGGFGSRSLYNLGGHKSISVSVAGGALLGRALGGFGFGSRAFMGQGAGRQTFGPACPPGGIQEVTVNQSLLTPLHVEIDPEIQRVRTQEREQIKTLNNKFASFIDKVRFLEQQNKVLETKWALLQEQGQNLGVTRNNLEPLFEAYLGSMRSTLDRLQSERGRLDSELRNVQDLVEDFKNKYEDEINKHTAAENEFVVLKKDVDAAYMGRMDLHGKVGTLTQEIDFLQQLYEMELSQVQTHVSNTNVVLSMDNNRNLDLDSIIAEVKAQYELIAQRSRAEAEAWYQTKYEELQVTAGKHGDNLRDTKNEIAELTRTIQRLQGEADAAKKQCQQLQTAIAEAEQRGELALKDAQKKLGDLDVALHQAKEDLTRLLRDYQELMNVKLALDVEIATYRKLLESEESRMSGECPSAVSISVTGNSTTVCGGGAASFGGGISLGGSGGATKGGFSTNVGYSTVKGGPVSAGTSILRKTTTVKTSSQRY

Variants of: B1
Settings: with ssna1_human SSNA1, O43805

effect of a mutation on the interaction | Variant
with no effect | Q685K

Variants of: B2
Settings: with if4e_human EIF4E

effect of a mutation on the interaction | Variant
with no effect | G6D

Variants of: B3
Settings: with lnx1_human LNX1, Q8TBB1
lnx1_human LNX1, Q8TBB1, sequence (Q8TBB1 whole entry): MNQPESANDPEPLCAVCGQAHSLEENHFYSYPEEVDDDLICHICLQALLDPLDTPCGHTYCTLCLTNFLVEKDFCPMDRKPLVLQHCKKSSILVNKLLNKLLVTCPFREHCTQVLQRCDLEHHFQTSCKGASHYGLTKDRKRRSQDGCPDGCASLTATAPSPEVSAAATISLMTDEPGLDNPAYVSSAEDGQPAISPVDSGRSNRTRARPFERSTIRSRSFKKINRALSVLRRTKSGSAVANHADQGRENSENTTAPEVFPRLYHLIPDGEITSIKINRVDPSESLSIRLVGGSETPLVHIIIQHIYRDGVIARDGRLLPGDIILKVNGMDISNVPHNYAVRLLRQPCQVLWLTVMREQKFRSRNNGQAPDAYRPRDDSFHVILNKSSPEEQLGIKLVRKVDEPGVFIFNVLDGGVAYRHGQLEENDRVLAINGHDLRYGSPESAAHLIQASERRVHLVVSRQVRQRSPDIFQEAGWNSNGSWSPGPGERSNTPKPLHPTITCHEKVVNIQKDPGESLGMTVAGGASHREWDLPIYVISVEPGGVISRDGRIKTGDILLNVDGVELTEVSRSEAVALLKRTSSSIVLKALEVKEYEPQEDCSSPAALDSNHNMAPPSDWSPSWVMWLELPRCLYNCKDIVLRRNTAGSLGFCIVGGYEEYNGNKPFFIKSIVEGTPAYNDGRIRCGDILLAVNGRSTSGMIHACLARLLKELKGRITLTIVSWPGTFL

effect of a mutation on the interaction | Variant
with no effect | C62W

Variants of: B3
Settings: with hnrl1_human HNRNPUL1, Q9BUJ2
hnrl1_human HNRNPUL1, Q9BUJ2, sequence (Q9BUJ2 whole entry): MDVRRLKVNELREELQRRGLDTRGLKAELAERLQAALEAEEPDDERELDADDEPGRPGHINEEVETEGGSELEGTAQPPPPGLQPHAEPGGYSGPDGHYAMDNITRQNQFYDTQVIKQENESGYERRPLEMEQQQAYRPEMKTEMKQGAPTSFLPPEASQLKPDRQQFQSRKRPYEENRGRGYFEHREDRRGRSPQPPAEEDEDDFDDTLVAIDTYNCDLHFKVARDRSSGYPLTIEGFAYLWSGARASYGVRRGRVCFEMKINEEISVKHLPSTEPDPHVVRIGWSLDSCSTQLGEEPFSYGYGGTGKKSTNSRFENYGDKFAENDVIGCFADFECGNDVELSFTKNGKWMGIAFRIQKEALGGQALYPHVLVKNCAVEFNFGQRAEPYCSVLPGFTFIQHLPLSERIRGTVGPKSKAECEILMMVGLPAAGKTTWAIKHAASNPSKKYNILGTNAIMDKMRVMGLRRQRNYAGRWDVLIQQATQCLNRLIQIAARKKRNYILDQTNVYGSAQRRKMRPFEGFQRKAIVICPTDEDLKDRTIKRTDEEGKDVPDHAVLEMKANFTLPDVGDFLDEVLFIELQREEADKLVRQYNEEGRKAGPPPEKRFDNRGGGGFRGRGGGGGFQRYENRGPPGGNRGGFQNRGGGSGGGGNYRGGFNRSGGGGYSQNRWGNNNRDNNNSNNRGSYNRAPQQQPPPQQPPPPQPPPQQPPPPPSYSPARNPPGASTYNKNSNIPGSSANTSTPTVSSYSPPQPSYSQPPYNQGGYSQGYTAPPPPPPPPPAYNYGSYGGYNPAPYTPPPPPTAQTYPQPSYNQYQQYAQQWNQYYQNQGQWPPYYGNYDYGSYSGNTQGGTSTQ

effect of a mutation on the interaction | Variant
with no effect | C62W

Variants of: B3
Settings: with aapk1_human PRKAA1, Q13131
aapk1_human PRKAA1, Q13131, sequence (Q13131 whole entry, looked up): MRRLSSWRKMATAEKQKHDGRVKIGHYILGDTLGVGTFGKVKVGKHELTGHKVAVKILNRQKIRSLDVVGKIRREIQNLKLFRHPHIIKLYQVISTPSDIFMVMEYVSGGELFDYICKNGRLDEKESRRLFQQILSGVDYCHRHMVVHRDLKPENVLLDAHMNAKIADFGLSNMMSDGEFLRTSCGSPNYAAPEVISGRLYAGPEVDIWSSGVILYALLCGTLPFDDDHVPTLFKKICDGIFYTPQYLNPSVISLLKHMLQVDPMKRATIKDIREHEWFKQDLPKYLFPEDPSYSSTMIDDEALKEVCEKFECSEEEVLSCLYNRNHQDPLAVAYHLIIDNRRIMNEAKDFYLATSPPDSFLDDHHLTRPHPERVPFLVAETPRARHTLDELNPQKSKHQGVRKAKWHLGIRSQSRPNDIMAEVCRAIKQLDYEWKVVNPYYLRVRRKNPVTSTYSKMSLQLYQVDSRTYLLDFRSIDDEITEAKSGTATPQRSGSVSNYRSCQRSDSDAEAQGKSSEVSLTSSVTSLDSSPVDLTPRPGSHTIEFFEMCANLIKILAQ

effect of a mutation on the interaction | Variant
with no effect | C62W

Variants of: B4
Settings: with atpf2_human ATPAF2, Q8N5M1

effect of a mutation on the interaction | Variant
with no effect | R335P

Variants of: B5
Settings: with KRT15, P19012
KRT15, P19012, sequence (P19012 whole entry): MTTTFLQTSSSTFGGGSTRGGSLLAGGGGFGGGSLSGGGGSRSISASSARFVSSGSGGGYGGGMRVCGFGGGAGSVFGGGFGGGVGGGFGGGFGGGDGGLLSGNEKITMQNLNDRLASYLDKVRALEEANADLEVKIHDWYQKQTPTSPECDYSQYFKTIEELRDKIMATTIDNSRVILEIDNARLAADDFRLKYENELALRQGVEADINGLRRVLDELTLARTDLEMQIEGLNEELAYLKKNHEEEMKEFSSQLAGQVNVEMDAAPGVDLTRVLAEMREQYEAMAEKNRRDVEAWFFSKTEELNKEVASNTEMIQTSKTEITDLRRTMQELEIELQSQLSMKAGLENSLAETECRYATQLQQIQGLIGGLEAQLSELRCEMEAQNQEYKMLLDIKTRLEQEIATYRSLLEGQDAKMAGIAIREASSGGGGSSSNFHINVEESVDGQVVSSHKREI

effect of a mutation on the interaction | Variant
with no effect | R30C
with no effect | G86E
with no effect | D217Y
with no effect | H266R

Variants of: B5
Settings: with kt33b_human KRT33B

effect of a mutation on the interaction | Variant
with no effect | D217Y
with no effect | H266R
